Assay results taken from paper PMC10543426, “The PALB2 DNA-binding domain is an intrinsically disordered recombinase” (Research Square, 2023).

Key:
[1] = target: PALB2 coiled-coil (Homo sapiens) (UniProt Q86YC2); assay: NMR titration; details: cited from earlier work
PALB2-DBD [2] = target: T1, PALB2-DBD (Homo sapiens, UniProt Q86YC2 1-195, I195W); assay: analytical ultracentrifugation; DNA:protein 1:2 and 1:4; no free DNA peak; 0.1 M NaCl; AUC of DNA complexes: 0.1 M NaCl, 20 C; smFRET, EPR and CD buffers not in the material; details: protein: recombinant; tags: 6xHis-SUMO and MBP, cleaved by Ulp1/TEV; chain copies: 2; label: 5' Cy3; single strand
T1 sequence: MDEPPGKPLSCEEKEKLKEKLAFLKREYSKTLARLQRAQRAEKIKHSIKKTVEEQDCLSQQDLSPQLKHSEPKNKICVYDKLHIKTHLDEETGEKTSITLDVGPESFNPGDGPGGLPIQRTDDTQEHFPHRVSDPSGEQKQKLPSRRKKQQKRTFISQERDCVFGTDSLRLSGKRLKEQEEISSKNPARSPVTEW

[3] = target: the molecule itself; assay: AUC; sedimentation velocity, protein alone; 1 M NaCl, 10% glycerol, 1 mM TCEP, 2 mM CHAPS, 25 mM HEPES pH 7.5; 30,000 rpm, 20°C, absorbance at 280 nm; relatively high protein concentration
[4] = target: the molecule itself; assay: AUC; sedimentation velocity with Cy3-labelled ssDNA (Cy3-dT50 or Cy3-dT25), DNA:protein molar ratios 1:2 and 1:4 (4 and 8 μM protein), 0.1 M NaCl, 10% glycerol, 1 mM TCEP, 2 mM CHAPS, 25 mM HEPES pH 7.5, 20°C, absorbance at 550 nm; dimers to tetramer
PALB2-DBD [5] = target: T1, PALB2-DBD; assay: smFRET; mean FRET 0.18 free, 0.45 and 0.79 bound; AUC of DNA complexes: 0.1 M NaCl, 20 C; smFRET, EPR and CD buffers not in the material; details: protein: recombinant; tags: 6xHis-SUMO and MBP, cleaved by Ulp1/TEV; chain copies: 2; label: 5' Cy3, Cy5 at position 50; single strand
PALB2-DBD [6] = target: T1, PALB2-DBD; assay: analytical ultracentrifugation; DNA:protein 1:2 and 1:4; 0.1 M NaCl; AUC of DNA complexes: 0.1 M NaCl, 20 C; smFRET, EPR and CD buffers not in the material; details: protein: recombinant; tags: 6xHis-SUMO and MBP, cleaved by Ulp1/TEV; chain copies: 2; label: Cy3; single strand

PALB2 coiled-coil (from UniProt Q86YC2)
Kd [1]: 80 µM

TGGCGACGGCAGCGAGGCTCTCTAC (ssDNA) [Cy3-dT25 (25mer)]
binding result (PALB2-DBD [2]): binds

B1: PALB2 DNA-binding domain (PALB2-DBD), N-terminal fragment 1-195 I195W (domain or fragment, human, UniProt Q86YC2 1-195, looked up)
chain: T1 sequence
notes: Partner and Localizer of BRCA2 (PALB2), human, amino acids 1-195; the last amino acid mutated to tryptophan to increase absorption at 280 nm; SUMO cleaved with Ulp1 and MBP with TEV protease; also called PLAB2-DBD; source: E. coli BL21*, purified (amylose resin, heparin, gel filtration); not shown: 6×His-SUMO, N-terminal, cleaved; MBP, C-terminal, cleaved
stoichiometry N [3]: 2 | stoichiometry N [4]: 4

TTTTTTTTTTTTTTTTTTTTTTTTTTTTTTTTTTTTTTTTTTTTTTTTTT (ssDNA) [Cy3-dT50-Cy5]
binding result (PALB2-DBD [5]): binds

TTTTTTTTTTTTTTTTTTTTTTTTTTTTTTTTTTTTTTTTTTTTTTTTTT (ssDNA) [Cy3-dT50]
binding result (PALB2-DBD [6]): binds
